Laboratory results published in IntAct's records for PubMed 22001206.

B1: Dipeptidyl peptidase 4 (Homo sapiens), P27487 (parent)
chain: MKTPWKVLLGLLGAAALVTIITVPVVLLNKGTDDATADSRKTYTLTDYLKNTYRLKLYSLRWISDHEYLYKQENNILVFNAEYGNSSVFLENSTFDEFGHSINDYSISPDGQFILLEYNYVKQWRHSYTASYDIYDLNKRQLITEERIPNNTQWVTWSPVGHKLAYVWNNDIYVKIEPNLPSYRITWTGKEDIIYNGITDWVYEEEVFSAYSALWWSPNGTFLAYAQFNDTEVPLIEYSFYSDESLQYPKTVRVPYPKAGAVNPTVKFFVVNTDSLSSVTNATSIQITAPASMLIGDHYLCDVTWATQERISLQWLRRIQNYSVMDICDYDESSGRWNCLVARQHIEMSTTGWVGRFRPSEPHFTLDGNSFYKIISNEEGYRHICYFQIDKKDCTFITKGTWEVIGIEALTSDYLYYISNEYKGMPGGRNLYKIQLSDYTKVTCLSCELNPERCQYYSVSFSKEAKYYQLRCSGPGLPLYTLHSSVNDKGLRVLEDNSALDKMLQNVQMPSKKLDFIILNETKFWYQMILPPHFDKSKKYPLLLDVYAGPCSQKADTVFRLNWATYLASTENIIVASFDGRGSGYQGDKIMHAINRRLGTFEVEDQIEAARQFSKMGFVDNKRIAIWGWSYGGYVTSMVLGSGSGVFKCGIAVAPVSRWEYYDSVYTERYMGLPTPEDNLDHYRNSTVMSRAENFKQVEYLLIHGTADDNVHFQQSAQISKALVDVGVDFQAMWYTDEDHGIASSTAHQHIYTHMSHFIKQCFSLP
partner: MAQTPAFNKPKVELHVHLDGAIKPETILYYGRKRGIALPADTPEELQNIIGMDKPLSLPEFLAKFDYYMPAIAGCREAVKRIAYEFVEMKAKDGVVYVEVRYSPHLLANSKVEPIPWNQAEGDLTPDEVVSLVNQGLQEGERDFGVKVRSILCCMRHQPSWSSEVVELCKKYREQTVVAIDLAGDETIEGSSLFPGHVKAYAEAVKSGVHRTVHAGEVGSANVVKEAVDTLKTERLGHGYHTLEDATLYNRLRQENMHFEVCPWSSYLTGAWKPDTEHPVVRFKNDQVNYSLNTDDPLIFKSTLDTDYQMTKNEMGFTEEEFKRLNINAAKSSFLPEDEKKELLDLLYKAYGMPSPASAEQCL

Variants of: B1
Conditions: with ada_bovin ADA

effect of a mutation on the interaction | Variant
decreasing interaction | Y256A

Variants of: B1
Conditions: with ada_bovin ADA
Remark: another data set of the same source

effect of a mutation on the interaction | Variant
decreasing interaction | Y238A

Variants of: B1
Conditions: with ada_bovin ADA
Remark: another data set of the same source

effect of a mutation on the interaction | Variant
decreasing interaction | Y248A
